Here are results for nine variants from IntAct's records for PubMed 38225382.

B1: Estrogen-related receptor gamma (Homo sapiens), P62508-3 (parent)
chain: MSNKDRHIDSSCSSFIKTEPSSPASLTDSVNHHSPGGSSDASGSYSSTMNGHQNGLDSPPLYPSAPILGGSGPVRKLYDDCSSTIVEDPQTKCEYMLNSMPKRLCLVCGDIASGYHYGVASCEACKAFFKRTIQGNIEYSCPATNECEITKRRRKSCQACRFMKCLKVGMLKEGVRLDRVRGGRQKYKRRIDAENSPYLNPQLVQPAKKPLLWSDPADNKIVSHLLVAEPEKIYAMPDPTVPDSDIKALTTLCDLADRELVVIIGWAKHIPGFSTLSLADQMSLLQSAWMEILILGVVYRSLSFEDELVYADDYIMDEDQSKLAGLLDLNNAILQLVKKYKSMKLEKEEFVTLKAIALANSDSMHIEDVEAVQKLQDVLHEALQDYEAGQHMEDPRRAGKMLMTLPLLRQTSTKAVQHFYNIKLEGKVPMHKLFLEMLEAKV
B2: Host cell factor 1 (Homo sapiens), P51610-3 (parent)
chain: MASAVSPANLPAVLLQPRWKRVVGWSGPVPRPRHGHRAVAIKELIVVFGGGNEGIVDELHVYNTATNQWFIPAVRGDIPPGCAAYGFVCDGTRLLVFGGMVEYGKYSNDLYELQASRWEWKRLKAKTPKNGPPPCPRLGHSFSLVGNKCYLFGGLANDSEDPKNNIPRYLNDLYILELRPGSGVVAWDIPITYGVLPPPRESHTAVVYTEKDNKKSKLVIYGGMSGCRLGDLWTLDIDTLTWNKPSLSGVAPLPRSLHSATTIGNKMYVFGGWVPLVMDDVKVATHEKEWKCTNTLACLNLDTMAWETILMDTLEDNIPRARAGHCAVAINTRLYIWSGRDGYRKAWNNQVCCKDLWYLETEKPPPPARVQLVRANTNSLEVSWGAVATADSYLLQLQKYDIPATAATATSPTPNPVPSVPANPPKSL
partner: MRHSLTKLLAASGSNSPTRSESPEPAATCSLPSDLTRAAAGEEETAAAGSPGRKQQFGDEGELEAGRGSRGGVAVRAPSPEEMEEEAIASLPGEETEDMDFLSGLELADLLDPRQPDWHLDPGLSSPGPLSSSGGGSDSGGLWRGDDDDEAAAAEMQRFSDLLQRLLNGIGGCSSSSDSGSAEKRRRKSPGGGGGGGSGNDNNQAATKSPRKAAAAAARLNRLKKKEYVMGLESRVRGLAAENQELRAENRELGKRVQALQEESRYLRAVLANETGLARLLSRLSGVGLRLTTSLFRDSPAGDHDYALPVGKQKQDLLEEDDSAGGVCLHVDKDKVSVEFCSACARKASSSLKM
B3: CREB/ATF bZIP transcription factor (Homo sapiens), Q9NS37 (parent)
chain: B2 partner
partner: B2 chain
B4: Peroxisomal biogenesis factor 3 (Homo sapiens), P56589 (parent)
chain: MLRSVWNFLKRHKKKCIFLGTVLGGVYILGKYGQKKIREIQEREAAEYIAQARRQYHFESNQRTCNMTVLSMLPTLREALMQQLNSESLTALLKNRPSNKLEIWEDLKIISFTRSTVAVYSTCMLVVLLRVQLNIIGGYIYLDNAAVGKNGTTILAPPDVQQQYLSSIQHLLGDGLTELITVIKQAVQKVLGSVSLKHSLSLLDLEQKLKEIRNLVEQHKSSSWINKDGSKPLLCHYMMPDEETPLAVQACGLSPRDITTIKLLNETRDMLESPDFSTVLNTCLNRGFSRLLDNMAEFFRPTEQDLQHGNSMNSLSSVSLPLAKIIPIVNGQIHSVCSETPSHFVQDLLTMEQVKDFAANVYEAFSTPQQLEK
B5: Peroxisomal biogenesis factor 19 (Homo sapiens), P40855 (parent)
chain: MAAAEEGCSVGAEADRELEELLESALDDFDKAKPSPAPPSTTTAPDASGPQKRSPGDTAKDALFASQEKFFQELFDSELASQATAEFEKAMKELAEEEPHLVEQFQKLSEAAGRVGSDMTSQQEFTSCLKETLSGLAKNATDLQNSSMSEEELTKAMEGLGMDEGDGEGNILPIMQSIMQNLLSKDVLYPSLKEITEKYPEWLQSHRESLPPEQFEKYQEQHSVMCKICEQFEAETPTDSETTQKARFEMVLDLMQQLQDLGHPPKELAGEMPPGLNFDLDALNLSGPPGASGEQCLIM

In the first test the parent is B1. Particulars: with prs8_human PSMC5, P62195.
prs8_human PSMC5, P62195, sequence (P62195 whole entry): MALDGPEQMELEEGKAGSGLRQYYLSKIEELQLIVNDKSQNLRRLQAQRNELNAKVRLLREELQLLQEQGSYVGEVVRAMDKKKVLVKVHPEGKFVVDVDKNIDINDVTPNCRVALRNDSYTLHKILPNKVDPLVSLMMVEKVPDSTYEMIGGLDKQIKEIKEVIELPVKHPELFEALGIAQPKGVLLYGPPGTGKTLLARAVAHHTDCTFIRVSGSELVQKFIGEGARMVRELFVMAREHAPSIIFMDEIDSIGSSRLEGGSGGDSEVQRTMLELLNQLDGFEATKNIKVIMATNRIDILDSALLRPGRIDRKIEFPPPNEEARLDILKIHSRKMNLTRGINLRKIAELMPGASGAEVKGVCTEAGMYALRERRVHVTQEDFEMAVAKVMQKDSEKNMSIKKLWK
As to MSNKDRHIDSSCSSFIKTEPSSPASLTDSVNHHSPGGSSDASGSYSSTMNGHQNGLDSPPLYPSAPILGGSGPVRKLYDDCSSTIVEDPQTKCEYMLNSMPKRLCLVCGDIASGYHYGVASCEACKAFFKRTIQGNIEYSCPATNECEITKRRRKSCQACRFMKCLKVGMLKEGVRLDRVRGGRQKYKRRIDAENSPYLNPQLVQPAKKPLLWSDPADNKIVSHLLVAEPEKIYAMPDPTVPDSDIKALTTLCDLADRELVVIEGWAKHIPGFSTLSLADQMSLLQSAWMEILILGVVYRSLSFEDELVYADDYIMDEDQSKLAGLLDLNNAILQLVKKYKSMKLEKEEFVTLKAIALANSDSMHIEDVEAVQKLQDVLHEALQDYEAGQHMEDPRRAGKMLMTLPLLRQTSTKAVQHFYNIKLEGKVPMHKLFLEMLEAKV [I264E], the “effect of a mutation on the interaction” value is on record as “decreasing interaction strength”.

Regarding MSNKDRHIDSSCSSFIKTEPSSPASLTDSVNHHSPGGSSDASGSYSSTMNGHQNGLDSPPLYPSAPILGGSGPVRKLYDDCSSTIVEDPQTKCEYMLNSMPKRLCLVCGDIASGYHYGVASCEACKAFFKRTIQGNIEYSCPATNECEITKRRRKSCQACRFMKCLKVGMLKEGVRLDRVRGGRQKYKRRIDAENSPYLNPQLVQPAKKPLLWSDPADNKIVSHLLVAEPEKIYAMPDPTVPDSDIKALTTLCDLADRELVVIIGWAKHIPGFSTLSLADQMSLLQSAWMEILILGVVYRSLSFEDELVYADDYIMDEDQSKLAGLLDLNNAILQLVKKYKSMKLEKEEFVTLKAIALANSDSMHIEDVEAVQKLQDVLHEALQDYEAGQHMEDPRRAGKMLMTLPLLRQTSTKAVQHFYNIKLEGKVPMHKLFLEFLEAKV [M437F], the “effect of a mutation on the interaction” value is given as “decreasing interaction strength”.

Variants of B2 are the subject of another test. Particulars: with zhang_human CREBZF.
As to MASAVSPANLPAVLLQPRWKRVVGWSGPVPRPRHGHRAVAIKELIVVFGGGNEGIVDELHVYNTATNQWFIPAVRGDIPPGCAAYGFVCDGTRLLVFGGMVEYGKYSNDLYELQASRWEWKRLKAKTPKNGPPPCPRLGHSFSLVGNKCYLFGGLANDSEDPKNNIPRYLNDLYILELRPGSGVVAWDIPITYGVLPPPRESHTAVVYTEKDNKKSKLVIYGGMSGCRLGDLWTLDIDTLTWNKPSLSGVAPLPRSFHSATTIGNKMYVFGGWVPLVMDDVKVATHEKEWKCTNTLACLNLDTMAWETILMDTLEDNIPRARAGHCAVAINTRLYIWSGRDGYRKAWNNQVCCKDLWYLETEKPPPPARVQLVRANTNSLEVSWGAVATADSYLLQLQKYDIPATAATATSPTPNPVPSVPANPPKSL [L257F], the “effect of a mutation on the interaction” value is given as “decreasing interaction strength”.

In the case of MASAVSPANLPAVLLQPRWKRVVGWSGPVPRPRHGHRAVAIKELIVVFGGGNEGIVDELHVYNTATNQWFIPAVRGDIPPGCAAYGFVCDGTRLLVFGGMVEYGKYSNDLYELQASRWEWKRLKAKTPKNGPPPCPRFGHSFSLVGNKCYLFGGLANDSEDPKNNIPRYLNDLYILELRPGSGVVAWDIPITYGVLPPPRESHTAVVYTEKDNKKSKLVIYGGMSGCRLGDLWTLDIDTLTWNKPSLSGVAPLPRSLHSATTIGNKMYVFGGWVPLVMDDVKVATHEKEWKCTNTLACLNLDTMAWETILMDTLEDNIPRARAGHCAVAINTRLYIWSGRDGYRKAWNNQVCCKDLWYLETEKPPPPARVQLVRANTNSLEVSWGAVATADSYLLQLQKYDIPATAATATSPTPNPVPSVPANPPKSL [L138F], the “effect of a mutation on the interaction” value was “decreasing interaction strength”.

MASAVSPANLPAVLLQPRWKRVVGWSGPVPRPRHGHRAVAIKELIVVFGGGNEGIVDELHVYNTATNQWFIPAVRGDIPPGCAAYGFVCDGTRLLVFGGMVEYGKYSNDLYELQASRWEWKRLKAKTPKNGPPPCPRLGHSFSLVGNKCYLFGGLANDSEDPKNNIPRYLNDLYILELRPGSGVVAWDIPITYGVLPPPRESHTAVVYTEKDNKKSKLVIYGGMNGCRLGDLWTLDIDTLTWNKPSLSGVAPLPRSLHSATTIGNKMYVFGGWVPLVMDDVKVATHEKEWKCTNTLACLNLDTMAWETILMDTLEDNIPRARAGHCAVAINTRLYIWSGRDGYRKAWNNQVCCKDLWYLETEKPPPPARVQLVRANTNSLEVSWGAVATADSYLLQLQKYDIPATAATATSPTPNPVPSVPANPPKSL [S225N]: the “effect of a mutation on the interaction” value is recorded as “with no effect”.

The next test covers variants of B3. Conditions: with HCFC1, P51610-3.
Turning to MRHSLTKLLAASGSNSPTRSESPEPAATCSLPSDLTRAAAGEEETAAAGSPGRKQQFGDEGELEAGRGSRGGVAVRAPSPEEMEEEAIASLPGEETEDMDFLSGLELADLLDPRQPDWHLDPGLSSPGPLSSSGGGSDSGGLWRGDDDDEAAAAEMQRFSDLLQRLLNGIGGCSSSSDSGSAEKRRRKSPGGGGGGGSGNDNNQAATKSPRKAAAAAARLNRLKKKEYVMGLESRVRGLAAENQELRAENRELGKRVQALQEESRYLRAVLANETGLARLLSRLSGVGLRLTTSLFRDSPAGDHDAALPVGKQKQDLLEEDDSAGGVCLHVDKDKVSVEFCSACARKASSSLKM [Y306A], the “effect of a mutation on the interaction” value is reported as “decreasing interaction strength”.

A further test covers variants of B4. Particulars: with pex16_human PEX16, Q9Y5Y5.
pex16_human PEX16, Q9Y5Y5, sequence (Q9Y5Y5 whole entry): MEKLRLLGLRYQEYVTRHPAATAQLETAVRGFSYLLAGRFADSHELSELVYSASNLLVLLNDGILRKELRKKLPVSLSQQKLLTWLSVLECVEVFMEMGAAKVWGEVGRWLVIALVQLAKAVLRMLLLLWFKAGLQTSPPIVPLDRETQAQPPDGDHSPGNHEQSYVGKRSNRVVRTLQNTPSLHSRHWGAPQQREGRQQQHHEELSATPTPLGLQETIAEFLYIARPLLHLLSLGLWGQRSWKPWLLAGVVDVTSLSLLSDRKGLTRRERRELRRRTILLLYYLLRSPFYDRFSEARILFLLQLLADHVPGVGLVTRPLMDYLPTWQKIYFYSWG
For the variant MLRSVWNFLKRHKKKCIFLGTVLGGVYILGKYGQKKIREIQEREAAEYIAQARRQYHFESNQRTCNMTVLSMLPTLREALMQQLNSESLTALLKNRPSNKLEIWEDLKIISFTRSTVAVYSTCMLVVLLRVQLNIIGGYIYLDNAAVGKNGTTILAPPDVQQQYLSSIQHLLGDGLTELITVIKQAVQKVLGSVSLKHSLSLLDLEQKLKEIRNLVEQHKSSSWINKDGSKPLLCHYMMPDEETPLAVQACGLSPRDITTIKLLNETRDMLRSPDFSTVLNTCLNRGFSRLLDNMAEFFRPTEQDLQHGNSMNSLSSVSLPLAKIIPIVNGQIHSVCSETPSHFVQDLLTMEQVKDFAANVYEAFSTPQQLEK [E272R], the “effect of a mutation on the interaction” value is “decreasing interaction strength”.

For the variant MLRSVWNFLKRHKKKCIFLGTVLGGVYILGKYGQKKIREIQEREAAEYIAQARSQYHFESNQRTCNMTVLSMLPTLREALMQQLNSESLTALLKNRPSNKLEIWEDLKIISFTRSTVAVYSTCMLVVLLRVQLNIIGGYIYLDNAAVGKNGTTILAPPDVQQQYLSSIQHLLGDGLTELITVIKQAVQKVLGSVSLKHSLSLLDLEQKLKEIRNLVEQHKSSSWINKDGSKPLLCHYMMPDEETPLAVQACGLSPRDITTIKLLNETRDMLESPDFSTVLNTCLNRGFSRLLDNMAEFFRPTEQDLQHGNSMNSLSSVSLPLAKIIPIVNGQIHSVCSETPSHFVQDLLTMEQVKDFAANVYEAFSTPQQLEK [R54S], the “effect of a mutation on the interaction” value is given as “decreasing interaction strength”.

The next test covers variants of B5. Conditions: with pex3_human PEX3, P56589.
On to MAAAEEGCSVGAEADRELEELLESALDDKDKAKPSPAPPSTTTAPDASGPQKRSPGDTAKDALFASQEKFFQELFDSELASQATAEFEKAMKELAEEEPHLVEQFQKLSEAAGRVGSDMTSQQEFTSCLKETLSGLAKNATDLQNSSMSEEELTKAMEGLGMDEGDGEGNILPIMQSIMQNLLSKDVLYPSLKEITEKYPEWLQSHRESLPPEQFEKYQEQHSVMCKICEQFEAETPTDSETTQKARFEMVLDLMQQLQDLGHPPKELAGEMPPGLNFDLDALNLSGPPGASGEQCLIM [F29K], for which the “effect of a mutation on the interaction” value is “decreasing interaction strength”.
